T1: FVIII (as used in the competition ELISA of Example 21; form not stated) (UniProt P00451 20-2351, limits assumed)
T1 sequence (looked up): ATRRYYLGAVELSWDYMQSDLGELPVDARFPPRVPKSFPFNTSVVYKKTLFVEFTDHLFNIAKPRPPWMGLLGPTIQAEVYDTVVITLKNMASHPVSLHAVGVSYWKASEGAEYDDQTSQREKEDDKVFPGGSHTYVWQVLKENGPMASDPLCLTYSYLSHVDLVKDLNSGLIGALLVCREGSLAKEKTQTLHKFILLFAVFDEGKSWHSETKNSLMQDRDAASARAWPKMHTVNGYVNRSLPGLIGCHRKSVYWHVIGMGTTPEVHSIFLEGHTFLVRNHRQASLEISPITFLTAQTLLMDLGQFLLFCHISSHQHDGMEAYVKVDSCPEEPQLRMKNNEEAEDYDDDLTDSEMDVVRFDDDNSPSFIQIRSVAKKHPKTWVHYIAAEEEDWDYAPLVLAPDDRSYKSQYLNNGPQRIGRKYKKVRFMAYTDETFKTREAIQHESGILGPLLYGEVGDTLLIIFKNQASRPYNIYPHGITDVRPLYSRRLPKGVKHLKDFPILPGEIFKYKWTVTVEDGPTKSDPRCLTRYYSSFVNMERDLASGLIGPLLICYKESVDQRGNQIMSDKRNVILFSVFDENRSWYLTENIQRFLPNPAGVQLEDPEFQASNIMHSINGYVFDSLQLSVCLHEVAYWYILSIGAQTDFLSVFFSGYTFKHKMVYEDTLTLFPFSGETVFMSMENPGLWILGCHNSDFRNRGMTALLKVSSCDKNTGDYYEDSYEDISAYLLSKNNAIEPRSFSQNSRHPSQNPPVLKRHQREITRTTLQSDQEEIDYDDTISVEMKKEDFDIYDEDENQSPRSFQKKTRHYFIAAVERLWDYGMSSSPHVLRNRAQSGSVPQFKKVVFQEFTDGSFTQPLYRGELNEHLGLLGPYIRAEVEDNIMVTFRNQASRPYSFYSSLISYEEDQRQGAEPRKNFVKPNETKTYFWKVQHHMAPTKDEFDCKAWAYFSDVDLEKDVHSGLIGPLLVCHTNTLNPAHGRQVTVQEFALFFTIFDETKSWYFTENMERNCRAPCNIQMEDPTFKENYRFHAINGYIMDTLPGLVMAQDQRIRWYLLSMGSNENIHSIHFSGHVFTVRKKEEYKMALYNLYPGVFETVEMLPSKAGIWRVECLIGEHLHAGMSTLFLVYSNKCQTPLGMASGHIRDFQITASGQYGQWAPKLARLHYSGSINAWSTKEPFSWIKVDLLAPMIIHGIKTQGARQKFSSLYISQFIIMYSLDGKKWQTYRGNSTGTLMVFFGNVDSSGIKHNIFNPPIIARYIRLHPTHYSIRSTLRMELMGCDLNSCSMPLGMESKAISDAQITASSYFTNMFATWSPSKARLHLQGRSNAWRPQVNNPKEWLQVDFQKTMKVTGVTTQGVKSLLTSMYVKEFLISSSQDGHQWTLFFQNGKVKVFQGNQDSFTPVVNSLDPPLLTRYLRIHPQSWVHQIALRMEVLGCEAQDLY


Biological target: T1, FVIII (as used in the competition ELISA …)
Experiment: competition ELISA; competitor coated human VWF; FVIII 1 nM pre-incubated with the fragment
Experimental: In order to investigate the binding of the different VWF fragments to FVIII the following method is used. Briefly, human VWF is coated in a microtiterplate and incubated overnight at 4° C. After blocking, a solution with pre-incubated FVIII (1 nM) and VWF/VWF-fragment is added to the plate, followed by detection with biotinylated anti FVIII antibody and streptavidin-peroxidase S-POD (1:20000). The absorbance is measured at 450/620 nm.

Row | IC50 [µM] | Binder
1 | 0.028 | VWF(764-1198)-C1099/1142S-ALA-HPC4 monomer (other, also called 0003; TIL′/E′/VWD3/C8-3/TIL-3) SLSCRPPMVKLVCPADNLRAEGLECTKTCQNYDLECMSMGCVSGCLCPPGMVRHENRCVALERCPCFHQGKEYAPGETVKIGCNTCVCQDRKWNCTDHVCDATCSTIGMAHYLTFDGLKYLFPGECQYVLVQDYCGSNPGTFRILVGNKGCSHPSVKCKKRVTILVEGGEIELFDGEVNVKRPMKDETHFEVVESGRYIILLLGKALSVVWDRHLSISVVLKQTYQEKVCGLCGNFDGIQNNDLTSSNLQVEEDPVDFGNSWKVSSQCADTRKVPLDSSPATCHNNIMKQTMVDSSCRILTSDVFQDCNKLVDPEPYLDVCIYDTCSCESIGDCASFCDTIAAYAHVCAQHGKVVTWRTATLCPQSCEERNLRENGYESEWRYNSCAPACQVTCQHPEPLACPVQCVEGCHAHCPPGKILDELLQTCVDPEDCPVALAEDQVDPRLIDGK
2 | 20 | VWF(864-1250)-C1099/1142S-ALA-HPC4 monomer (other, also called 0001; D3 I) DATCSTIGMAHYLTFDGLKYLFPGECQYVLVQDYCGSNPGTFRILVGNKGCSHPSVKCKKRVTILVEGGEIELFDGEVNVKRPMKDETHFEVVESGRYIILLLGKALSVVWDRHLSISVVLKQTYQEKVCGLCGNFDGIQNNDLTSSNLQVEEDPVDFGNSWKVSSQCADTRKVPLDSSPATCHNNIMKQTMVDSSCRILTSDVFQDCNKLVDPEPYLDVCIYDTCSCESIGDCASFCDTIAAYAHVCAQHGKVVTWRTATLCPQSCEERNLRENGYESEWRYNSCAPACQVTCQHPEPLACPVQCVEGCHAHCPPGKILDELLQTCVDPEDCPVCEVAGRRFASGKKVTLNPSDPEHCQICHCDVVNLTCEACQEPGGLVVPPTDAALAEDQVDPRLIDGK
